# Earlier results as cited in article PMC1950483.
# How the values were obtained:
# Assay in all cases: NMR
# Settings in all cases: folded FNfn10 in solution
# Asp23 = Asp23 (UniProt position 1560, LLISWDAPAVT)
# Asp7 = Asp7 (UniProt position 1544, SDVPRDLEVVA)
# Glu9 = Glu9 (UniProt position 1546, VPRDLEVVAAT)
substance,measurement,setting,value
"Fibronectin, tenth type III domain (FNfn10) (Homo sapiens)",pKa,Asp23,5.40
same,pKa,Asp7,5.54
same,pKa,Glu9,5.25
